The text below walks through data of patent US20240034757A1 (OXFORD UNIVERSITY INNOVATION, published 2024).

One experiment concerns the target T1, CXCL6_HUMAN (human, UniProt P80162 38-114).
T1 sequence: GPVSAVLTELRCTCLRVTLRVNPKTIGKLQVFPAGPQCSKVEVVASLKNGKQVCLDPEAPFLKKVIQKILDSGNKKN
Briefly: BLI [Cont.].

For a further experiment, the target named is T2, CXCL1_HUMAN (human, UniProt P09341 35-107).
T2 sequence: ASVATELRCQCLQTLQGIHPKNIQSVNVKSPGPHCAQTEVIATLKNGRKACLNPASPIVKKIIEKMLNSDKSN
The experiment is described as follows: yeast surface display FACS re-test.

In the next experiment the target is T3, CXCL14_HUMAN (human, UniProt O95715 35-111).
T3 sequence: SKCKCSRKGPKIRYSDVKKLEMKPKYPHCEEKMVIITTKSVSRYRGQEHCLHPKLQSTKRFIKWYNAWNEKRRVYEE
The experiment is described as follows: BLI. A general note: Biolayer interferometry detects binding as a change in optical thickness at a sensor tip.

For another experiment, the target named is T4, CXCL10_HUMAN (human, UniProt P02778 22-98).
T4 sequence: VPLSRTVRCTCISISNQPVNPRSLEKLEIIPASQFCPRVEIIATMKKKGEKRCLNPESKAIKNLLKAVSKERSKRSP
The experiment is described as follows: BLI.

The target in a further experiment is CXCL12_HUMAN (human, UniProt P48061 22-89). Briefly: BLI.
Sequence of CXCL12_HUMAN (P48061 22-89 limits assumed): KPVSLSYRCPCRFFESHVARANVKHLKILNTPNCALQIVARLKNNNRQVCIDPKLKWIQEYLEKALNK
The next experiment addresses T5, CXCL13_HUMAN (human, UniProt O43927 23-109).
T5 sequence: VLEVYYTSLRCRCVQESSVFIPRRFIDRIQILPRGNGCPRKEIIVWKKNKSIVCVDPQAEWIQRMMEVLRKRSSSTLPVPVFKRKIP
Briefly: BLI.

In another experiment the target is T6, CXCL9_HUMAN (human, UniProt Q07325 23-125).
T6 sequence: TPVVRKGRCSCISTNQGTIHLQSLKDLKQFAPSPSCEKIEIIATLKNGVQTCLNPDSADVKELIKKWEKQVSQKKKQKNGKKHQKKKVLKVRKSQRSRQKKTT
The experiment is described as follows: BLI.

In another experiment the target is T7, P983_AMBCA (Amblyomma cajennense, UniProt A0A023FFB5 22-119).
T7 sequence: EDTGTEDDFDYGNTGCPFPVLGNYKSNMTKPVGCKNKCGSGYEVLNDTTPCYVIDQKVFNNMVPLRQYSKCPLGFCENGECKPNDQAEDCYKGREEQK
Briefly: BLI.

For experiment [1], the target named is T8, P1243_AMBAM (Amblyomma americanum, UniProt A0A0C9S461 26-123).
T8 sequence: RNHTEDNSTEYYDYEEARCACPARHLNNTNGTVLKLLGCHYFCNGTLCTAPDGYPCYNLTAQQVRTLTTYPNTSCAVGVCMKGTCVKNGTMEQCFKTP
The experiment is described as follows: BLI.

A further experiment addresses T9, P467_RHIPU (Rhipicephalus pulchellus, UniProt L7M8Z8 22-127).
T9 sequence: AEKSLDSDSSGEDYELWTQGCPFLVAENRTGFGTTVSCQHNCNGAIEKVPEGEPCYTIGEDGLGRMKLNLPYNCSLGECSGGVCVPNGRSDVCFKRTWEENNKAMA
Briefly: BLI.

The target in another experiment is T10, P974_AMBCA (Amblyomma cajennense, UniProt A0A023FDY8 22-118).
T10 sequence: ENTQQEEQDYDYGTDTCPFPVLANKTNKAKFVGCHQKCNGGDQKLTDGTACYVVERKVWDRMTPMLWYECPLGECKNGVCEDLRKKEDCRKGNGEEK
Briefly: BLI.

The target of the next experiment is T11, P1181_AMBMA (Amblyomma maculatum, UniProt G3MIX6 26-115).
T11 sequence: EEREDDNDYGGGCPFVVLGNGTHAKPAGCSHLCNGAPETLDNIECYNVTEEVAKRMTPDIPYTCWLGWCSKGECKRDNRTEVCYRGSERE
The experiment is described as follows: BLI.

Another experiment has as its target T12, P991_AMBCA (Amblyomma cajennense, UniProt A0A023FFD0 29-136).
T12 sequence: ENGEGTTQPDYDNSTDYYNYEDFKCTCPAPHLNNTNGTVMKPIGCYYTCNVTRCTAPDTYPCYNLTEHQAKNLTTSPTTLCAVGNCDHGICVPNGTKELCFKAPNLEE
The experiment is described as follows: BLI.

The next experiment addresses T13, P546_AMBCA (Amblyomma cajennense, UniProt A0A023FBW7 22-118).
T13 sequence: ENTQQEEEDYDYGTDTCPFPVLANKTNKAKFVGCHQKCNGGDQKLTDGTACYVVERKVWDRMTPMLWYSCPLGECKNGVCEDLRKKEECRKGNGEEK
Briefly: BLI.

The target in a further experiment is T14, P1180_AMBTR (Amblyomma triste, UniProt A0A023G6B6 26-116).
T14 sequence: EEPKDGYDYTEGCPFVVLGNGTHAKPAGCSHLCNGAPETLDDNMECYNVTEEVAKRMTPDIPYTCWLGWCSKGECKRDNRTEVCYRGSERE
Briefly: BLI.

The target in another experiment is T15, P1183_AMBTR (Amblyomma triste, UniProt A0A023G9N9 26-115).
T15 sequence: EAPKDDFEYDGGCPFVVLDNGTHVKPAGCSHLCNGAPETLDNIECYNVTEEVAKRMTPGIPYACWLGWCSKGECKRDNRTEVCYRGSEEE
The experiment is described as follows: BLI.

For the next experiment, the target named is T16, P1182_AMBMA (Amblyomma maculatum, UniProt G3MJ83 27-115).
T16 sequence: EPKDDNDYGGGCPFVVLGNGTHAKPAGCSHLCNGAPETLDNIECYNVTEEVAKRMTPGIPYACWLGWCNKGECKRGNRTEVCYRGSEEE
The experiment is described as follows: BLI.

The next experiment has as its target T17, P985_AMBPA (Amblyomma parvum, UniProt A0A023FT45 25-132).
T17 sequence: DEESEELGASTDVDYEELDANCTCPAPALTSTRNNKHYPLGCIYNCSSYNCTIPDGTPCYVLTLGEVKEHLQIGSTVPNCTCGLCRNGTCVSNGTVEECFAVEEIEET
The experiment is described as follows: BLI.

The target of the next experiment is T18, CXCL8_HUMAN (human, UniProt P10145 28-99).
T18 sequence: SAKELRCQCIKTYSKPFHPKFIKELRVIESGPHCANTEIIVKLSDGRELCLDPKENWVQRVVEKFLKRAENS
The experiment is described as follows: BLI [Cont.].

For a further experiment, the target named is T19, CXCL4_HUMAN (human, UniProt P02776 32-101).
T19 sequence: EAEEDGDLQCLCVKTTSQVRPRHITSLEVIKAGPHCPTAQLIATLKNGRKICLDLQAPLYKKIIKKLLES
Briefly: BLI [Cont.].

The next experiment addresses T20, CXCL7_HUMAN (human, UniProt P02775 59-128).
T20 sequence: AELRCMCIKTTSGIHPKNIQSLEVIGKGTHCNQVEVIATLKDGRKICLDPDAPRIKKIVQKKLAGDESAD
The experiment is described as follows: BLI [Cont.].

Another experiment has as its target T21, CXCL11_HUMAN (human, UniProt O14625 22-94).
T21 sequence: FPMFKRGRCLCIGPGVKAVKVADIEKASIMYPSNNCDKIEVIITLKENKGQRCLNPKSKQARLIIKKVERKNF
Briefly: BLI.

The target in experiment [2] is T8, P1243_AMBAM. Briefly: BLI. The source holds these as a separate data set.

Like-named read-outs stand apart in the source and are kept apart here.

B1: P1229_IXORI (other)
chain: DDEFFTVDYCGMNCTLQQDGSWTPCTQKNAECKCYHESGSSVGLCLSTAYTDFNQFGDPNNSDLDAATPRHPDASSR
B1: the binding result with CXCL6_HUMAN, with CXCL14_HUMAN, in the experiment with CXCL10_HUMAN, with CXCL12_HUMAN, in the experiment with CXCL13_HUMAN and with CXCL9_HUMAN was “no binding (tested: 300 nM)” in each case. In the experiment with CXCL1_HUMAN, the “% cells over threshold fluorescence” value amounted to 66%.

B2: P1166_IXORI (other)
chain: GPETKEDKKSDVYELFTVEYCGTNCTLLTNGRWTACTGKKGTCRCYHESGEKVGLCLSTEYTDFSEYPNPKSSEIDAAAPLPRETH
Take B2: the “% cells over threshold fluorescence” value with CXCL1_HUMAN is 63%. For the same molecule, the binding result in the experiment with CXCL12_HUMAN, with CXCL13_HUMAN and in the experiment with CXCL9_HUMAN was “no binding (tested: 300 nM)” in each case.

B3: P1132_IXORI (other)
chain: LSDEDELFSVEYCGTNCTKQDTGSWTTCSGNCTCYHEDGKKVGLCLSTEYTDFTKFPKPTSEEIANARPLPKREKTLN
Regarding B3, the “% cells over threshold fluorescence” value in the experiment with CXCL1_HUMAN was found to be 68%. The binding result with CXCL12_HUMAN, in the experiment with CXCL13_HUMAN and in the experiment with CXCL9_HUMAN was “no binding (tested: 300 nM)” each time.

B4: CCL11_HUMAN (ligand)
chain: not shown
Regarding B4, the Kd (as a rule, the concentration at which binding is half-saturated) came to 21 nM in the experiment with P983_AMBCA; 6.03 nM in the experiment with P1243_AMBAM [1]; 1.4 nM with P467_RHIPU; 17 nM with P974_AMBCA; 20 nM with P1181_AMBMA; 3.43 nM in the experiment with P991_AMBCA. The Kd was found to be 8.7 nM in the experiment with P546_AMBCA; 33 nM with P1180_AMBTR; 8.5 nM in the experiment with P1183_AMBTR; 28 nM in the experiment with P1182_AMBMA; 8 nM with P985_AMBPA.

B5: P1104_IXORI (other)
chain: ESKEASASQGPGKSFKVEFCETNCTENNGVWSGCTGDCICVSVGDSKEGRCMDLGDKVIDTPVAQG
As to B5, the binding result with CXCL8_HUMAN, with CXCL4_HUMAN, with CXCL7_HUMAN, with CXCL14_HUMAN, in the experiment with CXCL11_HUMAN and in the experiment with CXCL10_HUMAN was “no binding (tested: 300 nM)” throughout. Besides, the binding result with CXCL9_HUMAN is “no binding (tested: 300 nM)”. Besides, the “% cells over threshold fluorescence” value in the experiment with CXCL1_HUMAN was determined as 65%. For the same molecule, the dissociation constant Kd amounted to 67.8 nM in the experiment with CXCL12_HUMAN and 220 nM with CXCL13_HUMAN.

B6: P1077_IXORI (other)
chain: GSKQLIGPQSSTNSIKAEFCDTNCTAGTNGIWNGCSGDCFCTHVGNSTEGRCMKITGFDEYPTSEAEE
Take B6: the binding result with CXCL8_HUMAN, with CXCL4_HUMAN, with CXCL7_HUMAN, in the experiment with CXCL14_HUMAN, with CXCL10_HUMAN and in the experiment with CXCL12_HUMAN was “no binding (tested: 300 nM)” in each case. Besides, the binding result with CXCL13_HUMAN and with CXCL9_HUMAN was “no binding (tested: 300 nM)” each time. Further, the “% cells over threshold fluorescence” value with CXCL1_HUMAN was determined as 50%.

B7: CCL4L1_HUMAN (ligand)
chain: APMGSDPPTACCFSYTARKLPRNFVVDYYETSSLCSQPAVVFQTKRGKQVCADPSESWVQEYVYDLELN
For B7, the dissociation constant (Kd) worked out at 2.9 nM with P983_AMBCA; 35.4 nM with P1243_AMBAM [1]; 4.72 nM in the experiment with P467_RHIPU; 23.2 nM with P974_AMBCA; 35 nM with P1181_AMBMA; 0.827 nM with P991_AMBCA. In addition, the Kd with P546_AMBCA stood at 8.9 nM; with P1180_AMBTR, 20 nM; in the experiment with P1183_AMBTR it was 48 nM; with P1182_AMBMA it was 92 nM; with P985_AMBPA, 21 nM; with P1243_AMBAM [2], 35.4 nM.

B8: P1162_IXORI (other)
chain: LNDEELFTVDYCGTNCTQQPNGSWTTCPGNCSCYHEDGKTDGFCLSTEYTDFTQFPNLTSEEMDAATPRPE
Consider B8, for which the binding result with CXCL6_HUMAN, in the experiment with CXCL14_HUMAN, with CXCL11_HUMAN, with CXCL10_HUMAN, in the experiment with CXCL12_HUMAN and with CXCL13_HUMAN was “no binding (tested: 300 nM)” in each case. In the experiment with CXCL9_HUMAN, the binding result is “no binding (tested: 300 nM)”. Also, the “% cells over threshold fluorescence” value with CXCL1_HUMAN was determined as 72%.
